{"source": "paper doi:10.1101/2020.02.09.940833", "key": {"SAR1A (human)": {"target": "SAR1A (human) (UniProt Q9NR31)", "sequence (Q9NR31 whole entry)": "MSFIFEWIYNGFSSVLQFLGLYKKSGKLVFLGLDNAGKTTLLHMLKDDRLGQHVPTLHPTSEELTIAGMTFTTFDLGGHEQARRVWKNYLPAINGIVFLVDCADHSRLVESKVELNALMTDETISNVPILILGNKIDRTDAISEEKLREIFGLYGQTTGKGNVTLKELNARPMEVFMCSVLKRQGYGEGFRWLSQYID", "test": "liposome flotation"}, "SAR1B>A-helix (human)": {"target": "SAR1B>A-helix (human) (UniProt Q9Y6B6)", "test": "liposome flotation"}}}
{"substance": "GTPase activating fragment of SEC31A (from UniProt O94979 1-1220) (domain or fragment)", "values": [{"measurement": "fold recruitment relative to SAR1B", "setting": "SAR1A (human)", "result": 2, "unit": "fold"}]}
{"substance": "SEC23A (from UniProt Q15436 1-765) (natural protein)", "values": [{"measurement": "fold reduction of binding (reference as read: SAR1A>B-helix)", "setting": "SAR1B>A-helix (human)", "result": 2, "unit": "fold"}]}
